# In US20090022728A1 (RINAT NEUROSCIENCE, published 2009):
# Positions count from the first letter of the chain named. Names may count otherwise.
# B1: 9TL variant M28 Fab (Fab, V domains shown)
# VH: QVQLVQSGAEVKKPGASVKVSCKASGYYTEAYYIHWVRQAPGQGLEWMGRIDPATGNTKYAPRLQDRVTMTRDTSTSTVYMELSSLRSEDTAVYYCASLYSLPVYWGQGTTVTVSS
# VL: DVVMTQSPLSLPVTLGQPASISCKSSQSLLYSDAKTYLNWFQQRPGQSPRRLIYQISRLDPGVPDRFSGSGSGTDFTLKISRVEAEDVGVYYCLQGTHYPMLFGQGTRLEIKR
# notes: Fab; human IgG2 CH1 and kappa CL
# B2: 9TL variant M29 Fab (Fab, V domains shown)
# VH: B1 VH
# VL: B1 VL with M101V, L102S
# notes: as for B1
# B3: 9TL variant M30 Fab (Fab, V domains shown)
# VH: B1 VH
# VL: B1 VL with M101V, L102V
# notes: as for B1
# B4: 9TL variant M31 Fab (Fab, V domains shown)
# VH: B1 VH with L99V
# VL: B1 VL with M101V
# notes: as for B1
# B5: 9TL variant M32 Fab (Fab, V domains shown)
# VH: B1 VH with L99I
# VL: B1 VL with M101V
# notes: as for B1
# B6: 9TL variant M35 Fab (Fab, V domains shown)
# VH: B1 VH with S101G
# VL: B1 VL with M101V
# notes: as for B1
# B7: 9TL variant M36 Fab (Fab, V domains shown)
# VH: B1 VH with L102R
# VL: B1 VL with M101V
# notes: as for B1
# B8: 9TL variant M37 Fab (Fab, V domains shown)
# VH: B1 VH with L102A
# VL: B1 VL with M101V
# notes: as for B1
# B9: 9TL variant M38 Fab (Fab, V domains shown)
# VH: B1 VH with L102V
# VL: B1 VL with M101V
# notes: as for B1
# B10: 9TL variant M39 Fab (Fab, V domains shown)
# VH: B1 VH with L102S
# VL: B1 VL with M101V
# notes: as for B1
# B11: 9TL variant M40 Fab (Fab, V domains shown)
# VH: B1 VH with L102T
# VL: B1 VL with M101V
# notes: as for B1
# B12: 9TL variant M41 Fab (Fab, V domains shown)
# VH: B1 VH with L102Q
# VL: B1 VL with M101V
# notes: as for B1
# B13: 9TL variant M42 Fab (Fab, V domains shown)
# VH: B1 VH with L102E
# VL: B1 VL with M101V
# notes: as for B1
# B14: 9TL variant M43 Fab (Fab, V domains shown)
# VH: B1 VH with V104I
# VL: B1 VL with M101V
# notes: as for B1
# B15: 9TL variant M46 Fab (Fab, V domains shown)
# VH: B1 VH with V104C
# VL: B1 VL with M101V
# notes: as for B1
# B16: 9TL variant M47 Fab (Fab, V domains shown)
# VH: B1 VH with V104Q
# VL: B1 VL with M101V
# notes: as for B1
# B17: 9TL variant M48 Fab (Fab, V domains shown)
# VH: B1 VH with V104S
# VL: B1 VL with M101V
# notes: as for B1
# B18: 9TL variant M49 Fab (Fab, V domains shown)
# VH: B1 VH with V104N
# VL: B1 VL with M101V
# notes: as for B1
# B19: 9TL variant M50 Fab (Fab, V domains shown)
# VH: B1 VH with V104F
# VL: B1 VL with M101V
# notes: as for B1
# B20: 9TL variant M51 Fab (Fab, V domains shown)
# VH: B1 VH with Y105H
# VL: B1 VL with M101V
# notes: as for B1
# B21: 9TL variant M52 Fab (Fab, V domains shown)
# VH: B1 VH with Y105F
# VL: B1 VL with M101V
# notes: as for B1
# B22: 9TL variant M53 Fab (Fab, V domains shown)
# VH: B1 VH with Y105W
# VL: B1 VL with M101V
# notes: as for B1
# B23: 9TL variant M54 Fab (Fab, V domains shown)
# VH: B1 VH with Y105S
# VL: B1 VL with M101V
# notes: as for B1
# B24: 9TL variant M55 Fab (Fab, V domains shown)
# VH: B1 VH with Y105I
# VL: B1 VL with M101V
# notes: as for B1
# B25: 9TL variant M56 Fab (Fab, V domains shown)
# VH: B1 VH with Y105V
# VL: B1 VL with M101V
# notes: as for B1
# B26: 9TL variant W1 Fab (Fab, V domains shown)
# VH: B1 VH
# VL: B1 VL with Y31A, A34S, M101V, L102T
# notes: as for B1
# B27: 9TL variant W5 Fab (Fab, V domains shown)
# VH: B1 VH
# VL: B1 VL with Y31H, K35A, M101V, L102T
# notes: as for B1
# B28: 9TL variant W8 Fab (Fab, V domains shown)
# VH: B1 VH
# VL: B1 VL with Y31H, A34S, K35A, M101V, L102T
# notes: as for B1
# B29: 6G light chain variant 5B (Q94G) (antibody, V domains shown)
# VH: QVQLVQSGAEVKKPGASVKVSCKASGYTFTTYAIHWVRQAPGQGLEWMGFTSPYSGVSNYNQKFKGRVTMTRDTSTSTVYMELSSLRSEDTAVYYCARFDNYDRGYVRDYWGQGTLVTVS
# VL: DIVMTQSPDSLAVSLGERATINCRASESVDNDRISFLNWYQQKPGQPPKLLIYAATKQGTGVPDRFSGSGSGTDFTLTISSLQAEDVAVYYCQGSKEFPWSFGGGTKVEIKR
# B30: 6G light chain variant 6E (E97P) (antibody, V domains shown)
# VH: B29 VH
# VL: B29 VL with G94Q, E97P
# Target: T1, biotinylated Aβ1-40 peptide (biotinylated (N-biotinylated in Example 7))
# T1 construct: captured on streptavidin (SA) chip; also called Biotinylated Aβ peptide 1-40; Aβ1-40 on SA chip
# Assay: SPR, Fab over Aβ1-40 on SA chip
# Experimental: (§1) Affinities of 9TL Fab fragment and its variants Fab fragments were determined by Surface Plasmon Resonance (SPR) system (BIAcore 3000™, BIAcore, Inc., Piscaway, N.J.). SA chips (streptavidin) were used according to the supplier's instructions. Biotinylated Aβ peptide 1-40 was diluted into HBS-EP (10 mM HEPES pH 7.4, 150 mM NaCl, 3 mM EDTA, 0.005% P20) and injected over the chip at a concentration of 0.005 mg/mL. Using variable flow time across the individual chip channels, two ranges of antigen density were achieved: 10-200 response units (RU) for detailed kinetic studies and 500-600 RU for concentration studies and screening. […] HBS-EP buffer was used as running buffer for all the BIAcore assays. […] The concentrations of the Fab proteins were determined by ELISA and/or SDS-PAGE electrophoresis using a standard Fab of known concentration (determined by amino acid analysis). Kinetic association rates (kₒₙ) and dissociation rates (koff) were obtained simultaneously by fitting the data to a 1:1 Langmuir binding model (Karlsson, R. Roos, H. Fagerstam, L. Petersson, B. (1994). Methods Enzymology 6. 99-110) using the BIAevaluation program. Equilibrium dissociation constant (KD) values were calculated as koff/kₒₙ.
# (§2) All amino acid substitutions of the variants shown in Table 3 are described relative to the sequence of 9TL. KD and other kinetic parameters were determined by BIAcore analysis described above with Aβ₁₋₄₀ immobilized on SA chip.
# T1 sequence (peptide, as listed by the source): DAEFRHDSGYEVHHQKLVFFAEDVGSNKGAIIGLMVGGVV
row,Binder,koff [s⁻¹]
1,B1,0.014
2,B2,0.00076
3,B3,0.00068
4,B4,0.01
5,B5,0.02
6,B6,0.009
7,B7,0.0009
8,B8,0.00092
9,B9,0.0015
10,B10,0.0023
11,B11,0.0045
12,B12,0.01
13,B13,0.015
14,B14,0.0003
15,B15,0.02
16,B16,0.02
17,B17,0.026
18,B18,0.026
19,B19,0.027
20,B20,0.00086
21,B21,0.0013
22,B22,0.0013
23,B23,0.0024
24,B24,0.003
25,B25,0.0035
26,B26,0.009
27,B27,0.004
28,B28,0.0038

# Target: T2, Aβ1-40 peptide
# T2 construct: synthetic peptide, not biotinylated; also called 1-40 (WT); beta amyloid 1-40
# Assay: ELISA, nonbiotinylated peptide on plate
# Experimental: ELISA was used for measuring binding of antibody 6G and variants to nonbiotinylated Aβ peptides. NUNC maxisorp plates were coated with 2.5 ug/ml of Aβ peptides in PBS pH 7.4 for more than 1 hour at 4° C. Plates were blocked with 1% BSA in PBS buffer pH 7.4. Primary antibody (from cell supernatants, serum containing anti-Aβ antibody, or purified full antibody or Fabs at desired dilution) was incubated with the immobilized Aβ peptides for 1 h at room temperature. After washing, the plates were incubated with secondary antibody, a HRP conjugated goat anti-human kappa chain antibody (MP Biomedicals, 55233) at 1:5000 dilution. After washing, bound secondary antibody was measured by adding TMB substrate (KPL, 50-76-02, 50-65-02). The HRP reaction was stopped by adding 1M phosphoric acid and absorbance at 450 nm was measured.
# All amino acid substitutions of the variants shown in Table 8 are described relative to the sequence of 6G. Binding was determined by ELISA described above with nonbiotinylated Aβ₁₋₄₀ or Aβ₁₋₄₂ immobilized on the surface of an ELISA plate.
# T2 sequence (peptide, as listed by the source): as above
row,Binder,A450 ELISA [A450]
1,B29,0.09
2,B30,0.12

# Target: T1, biotinylated Aβ1-40 peptide
# Assay: SPR, Fab over Aβ1-40 on SA chip; KD=koff/kon
# Experimental: as §1, §2
row,Binder,Kd [nM]
1,B1,44
2,B2,2.39
3,B3,2.14
4,B4,31.4
5,B5,62.9
6,B6,28.3
7,B7,2.83
8,B8,2.89
9,B9,4.72
10,B10,7.23
11,B11,14.2
12,B12,31.4
13,B13,47.2
14,B14,0.94
15,B15,62.9
16,B16,62.9
17,B17,81.8
18,B18,81.8
19,B19,84.9
20,B20,2.7
21,B21,4.09
22,B22,4.09
23,B23,7.55
24,B24,9.43
25,B25,11
26,B26,28.3
27,B27,12.6
28,B28,11.9

# Target: T1, biotinylated Aβ1-40 peptide
# Assay: SPR, Fab over Aβ1-40 on SA chip; kon may be assumed = 9TL (footnote 2)
# Experimental: as §1, §2
row,Binder,kon [M⁻¹ s⁻¹]
1,B1,318000
2,B2,318000
3,B3,318000
4,B4,318000
5,B5,318000
6,B6,318000
7,B7,318000
8,B8,318000
9,B9,318000
10,B10,318000
11,B11,318000
12,B12,318000
13,B13,318000
14,B14,318000
15,B15,318000
16,B16,318000
17,B17,318000
18,B18,318000
19,B19,318000
20,B20,318000
21,B21,318000
22,B22,318000
23,B23,318000
24,B24,318000
25,B25,318000
26,B26,318000
27,B27,318000
28,B28,318000
